Assay results from publication PMC10440358 (Biochemistry and Biophysics Reports, 2023).

B1: Human tryptophan hydroxylase 2, full-length wild type (enzyme, UniProt Q8IWU9 1-490, looked up)
chain: MQPAMMMFSSKYWARRGFSLDSAVPEEHQLLGSSTLNKPNSGKNDDKGNKGSSKREAATESGKTAVVFSLKNEVGGLVKALRLFQEKRVNMVHIESRKSRRRSSEVEIFVDCECGKTEFNELIQLLKFQTTIVTLNPPENIWTEEEELEDVPWFPRKISELDKCSHRVLMYGSELDADHPGFKDNVYRQRRKYFVDVAMGYKYGQPIPRVEYTEEETKTWGVVFRELSKLYPTHACREYLKNFPLLTKYCGYREDNVPQLEDVSMFLKERSGFTVRPVAGYLSPRDFLAGLAYRVFHCTQYIRHGSDPLYTPEPDTCHELLGHVPLLADPKFAQFSQEIGLASLGASDEDVQKLATCYFFTIEFGLCKQEGQLRAYGAGLLSSIGELKHALSDKACVKAFDPKTTCLQECLITTFQEAYFVSESFEEAKEKMRDFAKSITRPFSVYFNPYTQSIEILKDTRSIENVVQDLRSDLNTVCDALNKMNQYLGI
B2: Human tryptophan hydroxylase 2, full-length A328V variant (rs2887147) (enzyme, UniProt Q8IWU9 1-490, looked up)
chain: MQPAMMMFSSKYWARRGFSLDSAVPEEHQLLGSSTLNKPNSGKNDDKGNKGSSKREAATESGKTAVVFSLKNEVGGLVKALRLFQEKRVNMVHIESRKSRRRSSEVEIFVDCECGKTEFNELIQLLKFQTTIVTLNPPENIWTEEEELEDVPWFPRKISELDKCSHRVLMYGSELDADHPGFKDNVYRQRRKYFVDVAMGYKYGQPIPRVEYTEEETKTWGVVFRELSKLYPTHACREYLKNFPLLTKYCGYREDNVPQLEDVSMFLKERSGFTVRPVAGYLSPRDFLAGLAYRVFHCTQYIRHGSDPLYTPEPDTCHELLGHVPLLVDPKFAQFSQEIGLASLGASDEDVQKLATCYFFTIEFGLCKQEGQLRAYGAGLLSSIGELKHALSDKACVKAFDPKTTCLQECLITTFQEAYFVSESFEEAKEKMRDFAKSITRPFSVYFNPYTQSIEILKDTRSIENVVQDLRSDLNTVCDALNKMNQYLGI
B3: NΔ150-hTPH2 A328V (domain or fragment)
chain: not shown
B4: NΔ150-hTPH2 A328E (domain or fragment)
chain: not shown
B5: NΔ150-hTPH2, wild type (human tryptophan hydroxylase 2 lacking the N-terminal 150 amino acid regulatory domain) (domain or fragment)
chain: not shown

Biological target: the molecule itself
Test: SEC

Stoichiometry N, 4:
B1, B2, B3, B4, B5
